Source: PMC11722443

Target: Paxillin (PXN) N-domain, residues 1-311 (human) (UniProt P49023)
Experiment: NMR titration

Work on “Focal adhesion targeting (FAT) domain of focal adhesion kinase (FAK) (domain or fragment)” yielded an effective KD of the LD2 motif of 7 mM.
